# Laboratory results published in patent publication US20230312755A1 (ANGITIA, published 2023).
# Ends that are not written are not given here.
# T1: human Sclerostin (human, UniProt Q9BQB4 24-213)
# T1 sequence: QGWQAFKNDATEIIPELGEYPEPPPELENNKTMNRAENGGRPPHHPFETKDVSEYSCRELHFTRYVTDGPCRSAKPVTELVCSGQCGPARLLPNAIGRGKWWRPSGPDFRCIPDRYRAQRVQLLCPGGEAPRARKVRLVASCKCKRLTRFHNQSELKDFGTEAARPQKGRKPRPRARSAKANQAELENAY
# T2: His-tagged human Sclerostin (NCBI reference No. NP_079513.1) (human, UniProt Q9BQB4 24-213)
# T2 construct: also called mouse His-tagged human Sclerostin; not shown: His tag
# T2 sequence: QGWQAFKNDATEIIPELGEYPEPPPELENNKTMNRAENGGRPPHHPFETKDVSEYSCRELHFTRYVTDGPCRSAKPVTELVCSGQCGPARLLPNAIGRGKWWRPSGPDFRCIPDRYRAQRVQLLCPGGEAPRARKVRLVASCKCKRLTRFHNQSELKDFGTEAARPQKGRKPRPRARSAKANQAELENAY
# T3: cynomolgus monkey Sclerostin (cynomolgus monkey, UniProt Q9BG78 24-213 (Chlorocebus aethiops entry))
# T3 chain: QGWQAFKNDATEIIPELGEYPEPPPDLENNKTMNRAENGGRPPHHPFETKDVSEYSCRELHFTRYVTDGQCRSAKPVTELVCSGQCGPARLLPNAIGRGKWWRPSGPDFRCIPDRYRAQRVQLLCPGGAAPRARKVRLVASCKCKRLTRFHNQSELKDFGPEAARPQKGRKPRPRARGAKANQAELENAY
# T4: Pep2 (biotinylated (NHS-biotin), site not given)
# T4 construct: also called Pep2 mSOST
# T4 peptide: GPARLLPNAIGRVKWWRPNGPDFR
# T5: Pep3 (also: biotinylated (NHS-biotin), site not given here)
# T5 construct: also called Pep3 h/mSOST
# T5 peptide: GPARLLPNAIGR
# T6: Pep4 (also: biotinylated (NHS-biotin), site not given here)
# T6 construct: also called Pep4 hSOST
# T6 peptide: RLLPNAIGRGK
# T7: Pep7 (also: biotinylated (NHS-biotin), site not given here)
# T7 construct: also called Pep7 hSOST
# T7 peptide: KWWRPSGPDFR
# T8: Pep8 (also: biotinylated (NHS-biotin), site not given here)
# T8 construct: also called Pep8 mSOST
# T8 peptide: PNAIGRVKWWR
# T9: Pep9 (also: biotinylated (NHS-biotin), site not given here)
# T9 construct: also called Pep9 mSOST
# T9 peptide: IGRVKWWRPNGP
# T10: Pep10 (also: biotinylated (NHS-biotin), site not given here)
# T10 construct: also called Pep 10 mSOST
# T10 peptide: KWWRPNGPDFR
# T11: Pep1 (human, biotinylated (NHS-Biotin Reagents))
# T11 construct: Chemically synthesized peptide of the second loop of human Sclerostin, biotinylated and immobilized on a streptavidin biosensor; also called hScl 110-133
# T11 peptide: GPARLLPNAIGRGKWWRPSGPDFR
# T12: pep5 (human, also: biotinylated (NHS-biotin), site not given here)
# T12 construct: Chemically synthesized peptide of the second loop of human Sclerostin, biotinylated and immobilized on a streptavidin biosensor
# T12 peptide: PNAIGRGKWWR
# T13: pep6 (human, also: biotinylated (NHS-biotin), site not given here)
# T13 construct: Chemically synthesized peptide of the second loop of human Sclerostin, biotinylated and immobilized on a streptavidin biosensor
# T13 peptide: IGRGKWWRPSGP
# T14: human RANKL (human, UniProt O14788 140-317, limits assumed)
# T14 construct: Analyte in BLI; also called hRANKL; TNFSF11
# T14 sequence (looked up): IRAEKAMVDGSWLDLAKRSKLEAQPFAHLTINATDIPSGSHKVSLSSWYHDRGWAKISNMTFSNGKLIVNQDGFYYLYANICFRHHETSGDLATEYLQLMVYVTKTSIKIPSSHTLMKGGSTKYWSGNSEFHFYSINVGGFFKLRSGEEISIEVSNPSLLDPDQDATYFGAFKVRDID
# B1: 93B1B7 (antibody, V domains shown)
# VH: QAQLQQSGAELVRPGASVTLSCKASGYTFTDYEIHWMKQTPVHGLEWIGAIDPETGGTAYNQKFKGKAILTADRSSSTAYLELRSLTSEDSAVYYCYSYDYVTYWGQGTLVTVSA
# VL: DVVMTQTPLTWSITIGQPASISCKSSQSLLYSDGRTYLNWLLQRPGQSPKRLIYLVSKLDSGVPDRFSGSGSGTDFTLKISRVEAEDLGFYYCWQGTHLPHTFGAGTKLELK
# notes: Murine monoclonal antibody from a hybridoma; also called mAb 93B1B7; Antibody 93B1B7
# B2: BAP0069 (bispecific antibody, human IgG4 S228P, kappa, F234A L235A)
# heavy: EVQLVQSGAEVKKPGASVKVSCKASGYTFTDYEIHWVRQAPGKGLEWMGAIDPETGGTAYNQKFKGRVTMTTDTSTSTAYMELRSLRSDDTAVYYCYSYDYVTYWGQGTTVTVSSASTKGPSVFPLAPCSRSTSESTAALGCLVKDYFPEPVTVSWNSGALTSGVHTFPAVLQSSGLYSLSSVVTVPSSSLGTKTYTCNVDHKPSNTKVDKRVESKYGPPCPPCPAPEAAGGPSVFLFPPKPKDTLMISRTPEVTCVVVDVSQEDPEVQFNWYVDGVEVHNAKTKPREEQFNSTYRVVSVLTVLHQDWLNGKEYKCKVSNKGLPSSIEKTISKAKGQPREPQVYTLPPSQEEMTKNQVSLTCLVKGFYPSDIAVEWESNGQPENNYKTTPPVLDSDGSFFLYSKLTVDKSRWQEGNVFSCSVMHEALHNHYTQKSLSLSPGKGGGGSGGGGSGGGGSEIVLTQSPGTLSLSPGERATLSCRASQSVRGRYLAWYQQKPGQAPRLLIYGASSRATGIPDRFSGSGSGTDFTLTISRLEPEDFAVFYCQQYGSSPRTFGCGTKVEIKGGGGSGGGGSGGGGSGGGGSEVQLLESGGGLVQPGGSLRLSCAASGFTFSSYAMSWVRQAPGKCLEWVSGITGSGGSTYYADSVKGRFTISRDNSKNTLYLQMNSLRAEDTAVYYCAKDPGTTVIMSWFDPWGQGTLVTVSA
# light: DVVMTQSPLSLSVSPGERASLSCKSSQSLLYSDGRTYLNWYLQKPGQSPQRLIYLVSKLDSGVPDRFSGSGSGTDFTLKISRVQSEDVGVYYCWQGTHLPHTFGGGTKVEIKRTVAAPSVFIFPPSDEQLKSGTASVVCLLNNFYPREAKVQWKVDNALQSGNSQESVTEQDSKDSTYSLSSTLTLSKADYEKHKVYACEVTHQGLSSPVTKSFNRGEC
# notes: Anti-RANKL scFv (VL-VH, Denosumab) fused to the C-terminus of the heavy chains of the anti-Sclerostin full length antibody (hAb-1)
# Tests used:
# human Sclerostin [1] = target: T1, human Sclerostin; assay: cell-based or functional assay
# [2] = target: T2, His-tagged human Sclerostin (NCBI …); assay: ELISA, plate coated with His-tagged human Sclerostin
# Procedure: The ability of antibodies to specifically bind Sclerostin was determined by an ELISA capture assay. Plates were coated, in a 96-well half-area, with 100 μl/well of mouse His-tagged human Sclerostin (NCBI reference No. is NP_079513.1) [[…]], in coating buffer (PBS, pH 7.4), and incubated at RT for one hour, or 4° C. overnight. The plates were washed once with 100 μl/well of washing solution (PBS containing 0.2% Tween20, BIO-RAD). Plates were then incubated in blocking solution (PBS containing 1% BSA, 1% goat serum and 0.5% Tween20; 100 μl/well) for one hour at room temperature (RT). Anti-Sclerostin antibodies at various concentrations (1000, 333.3, 111.1, 37.0, 12.3, 4.1, 1.4, 0.5, 0.15, 0.05 ng/ml), a positive control antibody Romosozumab or non-Sclerostin related IgG (human or rat IgG, negative control), were then added to each well in 20 μl/well of blocking solution, and plates were incubated at RT for one hour. NeutrAvidin HRP (Pierce, Catalog #31001) diluted in blocking solution (1:50,000 dilution) was added at to each well ([…]), and the plates were incubated at RT for one hour prior to three washes with […] of washing solution. SuperSignal ELISA Femto (ThermoFisher Scientific, Catalog #37074) working solution was added to the plates ([…]), and the signal was read using a luminometer at 425 nm.
# human Sclerostin [3] = target: T1, human Sclerostin; assay: BLI (Gator), antibody on anti-hFc biosensor, Sclerostin as analyte, 1:1 global fit
# Procedure: (§1) The binding affinity of humanized anti-Sclerostin antibodies to human and cynomolgus monkey Sclerostin were determined with bio-layer interferometry using a Gator instrument (Probe Life). Antibodies were immobilized on an anti-hFc biosensor, using a […]. Serial dilutions of human Sclerostin and cynomolgus monkey Sclerostin from 4 μg/ml by two folds in kinetics buffer (PBS, pH 7.4, 0.05% Tween-20, 0.2% BSA, 10 μM biotin) were used as the analytes. Affinity (KD) and kinetic parameters (Kₒₙ and Koff) were calculated from a global fit (1:1) of the data using the Gator software.
# [4] = target: T3, cynomolgus monkey Sclerostin; assay: as above
# Procedure: as §1
# Pep2 = target: T4, Pep2; assay: BLI (Gator), biotinylated peptide on streptavidin biosensor, 93B1B7 as analyte
# Procedure: (§2) The peptides were biotinylated (NHS-Biotin Reagents, Thermo, #21343) and immobilized on Streptavidin biosensor, using a 0.5 μg/ml solution.
# Pep3 = target: T5, Pep3; assay: as above
# Procedure: as §2
# Pep4 = target: T6, Pep4; assay: as above
# Procedure: as §2
# Pep7 = target: T7, Pep7; assay: as above
# Procedure: as §2
# Pep8 = target: T8, Pep8; assay: as above
# Procedure: as §2
# Pep9 = target: T9, Pep9; assay: as above
# Procedure: as §2
# Pep10 = target: T10, Pep10; assay: as above
# Procedure: as §2
# Pep1 = target: T11, Pep1; assay: BLI (Gator), biotinylated peptide on streptavidin biosensor, 93B1B7 5 µg/ml as analyte
# Procedure: as §2
# pep5 = target: T12, pep5; assay: as above
# Procedure: as §2
# pep6 = target: T13, pep6; assay: as above
# Procedure: as §2
# human Sclerostin [5] = target: T1, human Sclerostin; assay: BLI (Gator), antibody on anti-hFc biosensor, antigen as analyte, 1:1 global fit
# Procedure: (§3) Binding kinetics and affinities of anti-Sclerostin×anti-DKK1 and anti-Sclerostin×anti-RANKL bispecific antibodies were measured with Gator (Probe Life) bio-layer interferometry (BLI). Antibodies were immobilized on an anti-hFc biosensor, using a 5 μg/ml solution. Serial dilutions of sclerostin (from 1 μg/ml), DKK1 (from 2 μg/ml), or RANKL (from 4 μg/ml) by two folds in kinetics buffer (PBS, pH 7.4, 0.05% Tween-20, 0.2% BSA) were used as the analytes. Affinity (KD) and kinetic parameters (Kₒₙ and Koff) were calculated from a global fit (1:1) of the data using the Gator software.
# human RANKL [6] = target: T14, human RANKL; assay: as above
# Procedure: as §3
# human Sclerostin [7] = target: T1, human Sclerostin; assay: BLI (Gator), antibody on anti-hFc biosensor, antigen as analyte; koff at LOD, KD estimated
# Procedure: as §3
# human RANKL [8] = target: T14, human RANKL; assay: as above
# Procedure: as §3
binder,measurement,setting,value
B1,"EC50, Sclerostin-neutralisation activity in HEK293/TCF/LEF/Wnt1 cells (luciferase reporter)",human Sclerostin [1],57.9 nM
same,EC50,[2],0.04 nM
same,Kd,human Sclerostin [3],0.051 nM
same,koff,human Sclerostin [3],8.4e-05 s⁻¹
same,kon,human Sclerostin [3],1e+06 M⁻¹ s⁻¹
same,Kd,[4],0.018 nM
same,koff,[4],6.5e-05 s⁻¹
same,kon,[4],2.2e+06 M⁻¹ s⁻¹
same,binding result,Pep2,no binding (tested: 5 µg/ml)
same,binding result,Pep3,no binding (tested: 5 µg/ml)
same,binding result,Pep4,no binding (tested: 5 µg/ml)
same,binding result,Pep7,no binding (tested: 5 µg/ml)
same,binding result,Pep8,no binding (tested: 5 µg/ml)
same,binding result,Pep9,no binding (tested: 5 µg/ml)
same,binding result,Pep10,no binding (tested: 5 µg/ml)
same,binding result,Pep1,binds
same,binding result,pep5,binds
same,binding result,pep6,binds
B2,kon,human Sclerostin [5],757000 M⁻¹ s⁻¹
same,kon,human RANKL [6],86700 M⁻¹ s⁻¹
same,Kd,human Sclerostin [7],~0.01 nM
same,Kd,human RANKL [8],~0.01 nM
